Experimental data taken from patent US20120114659A1.

Molecular target: human NPRA on HEK cells, without ligand (human) (UniProt P16066)
Experiment: cell-based or functional assay

Sequence of BNP (B-type natriuretic peptide) (P16860 103-134): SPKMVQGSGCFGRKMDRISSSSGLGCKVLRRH
Sequence of human NPRA on HEK cells, without ligand (human) (P16066 33-1061 limits assumed): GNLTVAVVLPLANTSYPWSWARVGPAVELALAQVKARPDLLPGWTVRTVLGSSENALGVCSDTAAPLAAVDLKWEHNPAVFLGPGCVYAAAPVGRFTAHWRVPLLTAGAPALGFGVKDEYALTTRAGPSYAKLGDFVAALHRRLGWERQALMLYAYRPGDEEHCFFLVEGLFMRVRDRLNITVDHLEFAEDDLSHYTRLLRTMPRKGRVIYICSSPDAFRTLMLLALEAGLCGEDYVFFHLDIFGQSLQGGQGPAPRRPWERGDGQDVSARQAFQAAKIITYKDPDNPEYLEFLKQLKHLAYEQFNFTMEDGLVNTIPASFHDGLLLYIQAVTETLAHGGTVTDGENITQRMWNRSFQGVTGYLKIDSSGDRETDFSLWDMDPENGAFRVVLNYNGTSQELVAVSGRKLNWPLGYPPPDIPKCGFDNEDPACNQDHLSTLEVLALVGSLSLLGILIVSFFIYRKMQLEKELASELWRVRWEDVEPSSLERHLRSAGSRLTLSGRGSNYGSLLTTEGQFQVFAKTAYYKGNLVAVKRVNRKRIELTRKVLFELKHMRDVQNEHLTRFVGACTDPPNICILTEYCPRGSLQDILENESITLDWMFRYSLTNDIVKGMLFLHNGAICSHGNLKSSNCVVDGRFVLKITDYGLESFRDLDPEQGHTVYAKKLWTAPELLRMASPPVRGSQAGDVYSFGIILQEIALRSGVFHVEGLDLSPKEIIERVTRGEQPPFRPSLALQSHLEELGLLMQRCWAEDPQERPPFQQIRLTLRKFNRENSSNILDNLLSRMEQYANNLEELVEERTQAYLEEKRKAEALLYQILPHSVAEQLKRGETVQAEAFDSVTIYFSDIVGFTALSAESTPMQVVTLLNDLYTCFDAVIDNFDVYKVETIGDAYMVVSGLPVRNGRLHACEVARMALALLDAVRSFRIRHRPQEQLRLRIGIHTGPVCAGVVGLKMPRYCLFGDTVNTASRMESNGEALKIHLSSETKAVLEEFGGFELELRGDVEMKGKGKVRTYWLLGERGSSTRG

EC50 of BNP for cGMP production in HEK NPRA cells in presence of 400 nM Fab 5504: 18 nM
EC50 of BNP for cGMP production in HEK NPRA cells in presence of 400 nM negative control Fab: 90 nM
Substance: BNP (B-type natriuretic peptide) (from UniProt P16860 103-134)
